Reference: article PMC4027180

Test system: Stf76 (Sulfolobus islandicus plasmid-virus pSSVx)
Test: ITC
Conditions: EMSA: 20 mM Tris-acetate pH 8.0, 50 mM K acetate, 10 mM Mg acetate, 1 mM DTT, 5% glycerol, 1 ug salmon sperm DNA, 50 C protein pre-incubation, binding 37 C …

Question: With “GGAAACAGTATTAATAAAGTGTTAATCCTATTACCC (double strand) [probe A' (35 bp-site A)]” as the sequence, how does the Kd read?
Answer: 40 nM
